This note sets out measurements from patent publication US4016250A, “Method for testing for pregnancy” (Cornell Research Foundation, Inc., priority 1974, dated 1977).

Assay [1] deals with T1, receptor for HCG in plasma membranes from bovine corpora lutea (Bos taurus, UniProt Q28005).
T1 construct: 100 g. of tissue from approximately 25 large corpora lutea; from tissue; host or cells: bovine corpora lutea of early pregnancy (slaughterhouse), plasma membrane fraction from zonal sucrose gradient
Description: Radioreceptorassay of HCG: competition with 125I-HCG for plasma membrane receptor. In kind it is binding. As for the experimental part: All procedures in the preparation of plasma membranes were carried out in an ice bath or at 4° C. Fresh bovine ovaries from early pregnancy (first trimester: fetus length from crown to rump up to 22 cm.) were obtained from the slaughter house and stored in liquid nitrogen until processed. In a typical experiment, 100 g. of tissue from approximately 25 large corpora lutea were cut into small pieces with a sharp steel blade and ground in 500 ml. of 10 mM. Tris-HCl buffer of pH. 7.8 containing one mM. of MgCl2, one MM. dithiothreitol, 10,000I.U. of Trasylol (FBA Pharmaceuticals) per liter and 0.25 M. sucrose. The homogenate was filtered through two layers of cheese cloth and the larger particles were reprocessed in 500 ml. of the buffer. […] The homogenate was centifuged at 650 xg. for 20 minutes in a Sorvall refrigerated centrifuge (RC B, Rotor GSA) to remove intact cells, cell debris and nuclei. The 650 × g. supernatant was again centrifuged at 13,000 g. for 20 minutes in the same centrifuge. […]
In Table I, the incubation was performed for 30 minutes at 37° C. in a Dunaboff water bath shaker. […] The supernates were aspirated and the pellets were counted in a Packard Autogamma counter with a 51% efficiency for I^125. The standard curves and the hormonal concentration in the plasma samples were calculated by a time sharing IBM computer using logit-log transformations.

Assay [2] deals with T2, PRL receptor sites in ovarian homogenates (Bos taurus, UniProt Q28172).
T2 construct: from tissue; host or cells: ovarian homogenate (bovine, from the preparation section)
T2 sequence (Q28172 25-581): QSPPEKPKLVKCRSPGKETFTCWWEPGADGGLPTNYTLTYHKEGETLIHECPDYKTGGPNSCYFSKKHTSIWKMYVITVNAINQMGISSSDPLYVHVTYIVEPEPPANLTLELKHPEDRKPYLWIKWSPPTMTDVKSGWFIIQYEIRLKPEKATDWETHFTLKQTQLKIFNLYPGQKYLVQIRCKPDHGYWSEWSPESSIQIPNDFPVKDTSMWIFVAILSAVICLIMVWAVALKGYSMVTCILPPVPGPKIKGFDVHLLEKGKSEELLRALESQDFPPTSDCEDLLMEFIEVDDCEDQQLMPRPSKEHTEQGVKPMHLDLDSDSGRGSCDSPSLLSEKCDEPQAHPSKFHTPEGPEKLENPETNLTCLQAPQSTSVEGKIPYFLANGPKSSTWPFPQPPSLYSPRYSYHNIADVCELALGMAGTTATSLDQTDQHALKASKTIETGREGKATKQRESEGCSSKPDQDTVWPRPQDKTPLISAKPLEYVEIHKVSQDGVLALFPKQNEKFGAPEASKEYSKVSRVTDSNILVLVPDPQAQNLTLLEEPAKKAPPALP
The assay is described as follows: Specificity of 125I-hPRL binding: displacement by unlabeled hormones. Further details: species or system bovine. As for the experimental part:
A reaction mixture containing 100 ul of incubation buffer containing 10 IU Trasylol (FBA Pharmaceuticals, New York, New York), 50 ul of receptor preparation equivalent to 1-300 ug of protein and 100 ul of ^125 I-hPRL (SA; 50-70 uCi/ug) were incubated at 37° C. for 2 hours in the absence and in the presence of 1 ug of unlabeled bovine PRL. At the end of incubation, 1 ml of ice cold buffer was added to all tubes and tubes were centrifuged at 5,000 rpm for 20 minutes. The supernatants were aspirated. The pellets containing receptor bound hormones were counted in an Automamma counter with a 51% efficiency for ^125 I (Packard Instrument Company, Downers Grove, Illinois). Specific binding was calculated as the difference of binding in the tubes with and without unlabeled PRL.

T1 sequence (Q28005 27-701): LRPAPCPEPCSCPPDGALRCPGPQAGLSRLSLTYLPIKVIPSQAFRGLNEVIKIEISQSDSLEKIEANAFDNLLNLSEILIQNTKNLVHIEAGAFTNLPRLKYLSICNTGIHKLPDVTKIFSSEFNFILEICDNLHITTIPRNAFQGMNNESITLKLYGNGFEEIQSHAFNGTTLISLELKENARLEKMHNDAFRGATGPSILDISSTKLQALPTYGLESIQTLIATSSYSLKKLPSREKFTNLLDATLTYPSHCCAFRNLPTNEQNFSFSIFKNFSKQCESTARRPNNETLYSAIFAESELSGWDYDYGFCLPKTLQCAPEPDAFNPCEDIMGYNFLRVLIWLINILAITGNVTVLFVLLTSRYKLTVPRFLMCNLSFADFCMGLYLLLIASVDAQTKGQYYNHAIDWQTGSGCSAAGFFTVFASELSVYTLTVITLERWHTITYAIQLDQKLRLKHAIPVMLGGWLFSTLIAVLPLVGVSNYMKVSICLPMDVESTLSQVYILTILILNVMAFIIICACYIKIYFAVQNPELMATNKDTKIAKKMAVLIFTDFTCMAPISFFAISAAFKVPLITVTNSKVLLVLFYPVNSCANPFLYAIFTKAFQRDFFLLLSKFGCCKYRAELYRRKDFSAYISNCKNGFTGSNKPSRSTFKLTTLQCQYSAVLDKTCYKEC

Regarding “LH from rat: sample of luteinizing hormone from rat”, the “logit-log line of radioreceptorassay response compared with HCG” value in assay [1] (same system, different concentrations) is given as “parallel to the line for HCG”.

As to human growth hormone [hGH], the “cross-reaction in the radioreceptorassay of HCG (FIG. 2)” value in assay [1] (FIG. 2 legends: TSH, HGH, PRL are plasma from hypothyroid, acromegalic, postpartum lactation subjects) was “no cross-reaction”. For the same substance, the “potency in displacing receptor-bound 125I-hPRL relative to hPRL” value in assay [2] is 0.5-1 % of hPRL. The “displacement of 125I-hPRL bound to receptor protein” value in assay [2] (various concentrations) is reported as “capable of displacing”.
